B1: VAMP4 (parent)
chain: IMALVAAILLLVIIILIVMKYRT

Variants of: B1
Test: protein stability index of a GFP-peptide fusion (GPS, HEK-293T) (PSI 1-6); higher = more stable
Details: c terminus: native
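Note: lentivirally expressed fusions sorted by FACS into six bins by GFP to DsRed ratio, PSI derived from sequencing read proportions per bin multiplied by bin number.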

Protein stability index: each site, then its substitutions
L11: S 3.39; Y 2.68; A 3.51; F 3.58; G 3.71; H 2.71; K 2.61; M 3.33; Q 2.6; I 3.33; W 2.84; N 2.25; R 2.98; V 3.46; D 2.28; P 3.43; T 3.56; E 2.27; C 3.27
I13: N 3.58; C 3.25; M 3.97; Q 2.86; G 3.21; L 3.81; A 3.86; W 3.63; D 1.4; K 1.98; V 2.8; R 3.08; E 1.77; T 3.82; H 2.94; P 2.66; F 3.46; Y 3.22; S 3.36
A7: R 3.36; K 3.15; D 2.37; P 2.75; L 3.58; H 1.84; V 3.45; G 3.51; T 3.4; E 1.62; M 3.09; Q 1.91; S 3.81; Y 2.94; N 2.02; C 3.29; F 3.74; I 3.42; W 3.03
A6: R 2.47; P 2.54; V 3.23; M 3.34; K 2.68; N 2.1; S 3.71; L 3.39; Q 2.37; T 3.43; Y 2.06; W 2.02
V12: G 3.32; T 3.16; C 2.97; I 3.64; Q 2.54; P 2.62; Y 2.47; R 2.49; N 2.48; S 3.17; K 2.06; F 3.47; A 3.62; M 3.03; H 2.3; W 2.65; D 1.65; E 1.6; L 3.23
L9: E 1.96; Q 2.29; S 3.05; I 3.36; P 2.43; T 3.08; N 2.4; F 3.56; K 2.5; D 2.68; A 2.92; H 2.52; M 3.74; G 3.48; C 3.33; Y 2.12; R 1.95; V 3.3; W 2.76
I15: C 3.51; A 3.05; D 2
I8: V 3.04; T 3.25; K 2.72; Q 2.01; A 3.34; L 3.28; P 2.85; C 3.01; W 2.47; M 3.69; E 2.68; N 2.48; G 3.37; F 3.4; R 2.72; Y 2.26; S 3.25; D 3.13; H 2.14
L10: F 3.43; Q 2.67; G 2.73; N 2.48; I 3.35; H 2.46; E 1.79; D 3.06; R 3.16; W 2.78; V 3.53; A 2.87; P 1.95; C 2.84; S 2.86; Y 2.03; T 2.87; M 3.35; K 1.97
I14: E 2.02; L 3.19; M 3.09; S 3.02; Y 3.26; C 3.36; F 3.48; N 2.17; T 3.25; H 1.92; A 3.33; R 2.56; G 3.44; K 1.92; D 1.5; P 3.1; V 3.25; Q 2.23; W 2.71
